Measurements published in the DeepSol protein solubility set.

Experiment: soluble on expression in E. coli; label from the status in PepcDB or PDB records
In the case of “MKPHALIGLLAGMLLSSSLYAADSTKPLPLHIGGRVLVESPANQPVSYTYSWPAVYFETAFKGQSLTLKFDDDQNIFRLIVDDKAPVVINKPGKVDYPVESLAPGKHRVRLEKLTETQSTSGRFLGFYTDPSAKPLALPKRKRQIEFIGDSFTVGYGNTSPSRECTDEELFKTTNSQMAFGPLTAKAFDADYQINASSGFGIVRNYNGTSPDKSLLSLYPYTLNNPDQLYHNKHWKPQVIVIGLGTNDFSTALNDNERWKTREALHADYVANYVKFVKQLHSNNARAQFILMNSDQSNGEIAEQVGKVVAQLKGGGLHQVEQIVFKGLDYSGCHWHPSANDDQLLANLLITHLQQKKGIWLEHHHH”, the “soluble on expression in E. coli” value is reported as “soluble”. For “MGSDKIHHHHHHMSIYRKIDRNKIQFDFIVHKTGKNFFEDEILKLGGRIYRLPNKRKHPFKYKQEFLNVIKNYKIIHVHSVYAFTYYEVKWARQCQKSVILHSHNSDAKLLRKIIHYLFKHLQNHYVSVRLSPSKQAAKWMFNEGHDKVVYLYNGFDTTKFQFDMNSRIEIREQLGLANNDYIIGCVGRLDWQKDPIYLLRLFEKLKANDNAYKLIFIGDGSYRQTLERETHQKGLVNDVIFTGSVSNVPEYLSALDIFVLPTRYEGLGISLIEAQINGLPVFTNKDVPKEAVINQNMYLLDKGDSELWVDAINKELNVINLKKRKVNLSDFNQYNIETVVKKLQNIYLQLLS”, the “soluble on expression in E. coli” value was “not soluble”. With “MLLAYSMKVVYHLFSGGKDSSLAAWILKKLGYEVKLITITFGVLDNWKFARETAEILGFDHEVIEMPIGILEKATEMCIKEGRAGNAIQYIHERALEYIASREEVKRISDGTRRDDRVPFLDLSKARSLEDRYNVAYIRPLLGLGYKTIRELVNEIFVVVEDESEKVQKGDYETELRELIRRKGHDPSQIFPKRHVQSRVVGLR” the “soluble on expression in E. coli” value was “not soluble”. With “MGSDKIHHHHHHPVAIIGGGPVGLAAAAHLAVRDVPFVLFEGKSEVGASILEWKHVSLFSPWKYNIDRAAKSLLEKESWKEPAGDRLPTGEQLVRDYLQPLAETKALKPYIYTNAPVQSIYRKGIDKIKDHNRENTPFIIRYKQDNDQKTLRARAVIDATGTWFSPNPIGAGGVPAIGEEEAKDSIYYGIPDVKGKDRSRYEGKTILVVGSGHSAIHTLLDLAQLKEAAPSTRILWAIRRNSPNGLFGGGQEDALPARGQLGLALEALLSKQKVELISSFEMEQIDRVEGRLSVVGVQNESPISLPLVDEIVANTGARPTVDYHRDIRYQLDSKLESVPALAPLIDPNIHSCGTVRPHGEKELRQPEKNFYIAGVKSYGRAPTFLLATGYEQVRSIVASLAGSKKEAERVELQLPKTGVCKSDFLAKRSCC” the “soluble on expression in E. coli” value was “not soluble”. For “DEDDSADNIHAVSSERWRIHAATEIEDINTFFGTEYSSEEADTIGGLVIQELGHLPVRGEKVLIGGLQFTVARADNRRLHTLMATRVK”, the “soluble on expression in E. coli” value was “soluble”. With “MIAWYGMALDQAVVNRPVKAKLYSKIVDSVECTACSRYCRLKPGKTGFCGVRKNIDGDLYLLVYGLPAAINVDPIEKKPVLHMYPGARIFSLSTVGCSFACQYCQNYDISQRRTITGYHYDPEEIVEEALSMGCQGIAYTYNEPSIFMEYAHDIGVIARRHGLINIFVTNGFETPEAIDYARDFLDAATVDFKGNASDEFYRKYISVPSARPIFETLANLKSAGIHVEVTDLVVPEVGDRLEDARTMLERIMDILGEYVPISFLRFHPDYRMMDLPDTPVETLRKHHDLAVSMGFKYVYIGNVPGYGENTYCPNCGNLLIERFVFSSKVIGLDRNGRCKKCGYDPQIPLMKEKRADYIS” the “soluble on expression in E. coli” value was “not soluble”. In the case of “MSLTSSQKDIINDILSAMQCYPENEAFIIDDKHYTYAQLGEITASITHSLSEIKDEKIGIVAENRIETYAAILAVLAGGKTYVILHPAYPEERNLKIAALAGLRTLLCTSDTDRSAFGTGHFRIIDTDRLPGKAQSEQQSHSSNEERNAYIIFTSGSTGEPKGVPITRANLNAFYRAYSLLDWNLDEHDRMLQMFELTFDVSVVSLLYPLTLGAAVYTVGHQDVKHFKVFELLEKYQLTFATVTPSLLQLLSPYFDEINLPSLKYLGVSAEASQTELLERFRKSVPNATFINLYGPTEATIYCTCYRIPASDKCKHYNGMVAIGKPFPGIRAIIADEEGNELPQGETGELWVSGRQVMKGYLDDPEKSALVLIHRPDGQIYYRTGDLCILDSDGDIIYCGRKDYQVKIQGFRIELSEIEYTAQSFFKTPCSVAAVPLLCDGICNELHLAVETTECTQSALIEYLKEKLPKYMLPKQIHCISQFPVTNSNKTDRKKIAELIKEGHHHHHH”, the “soluble on expression in E. coli” value is reported as “soluble”. In the case of “MGSDKIHHHHHHMKLSYVTDSLGHLPFEDMLNFAAKLGIDTLEMTTGGWSPAPHLNLDELLQSSEKRKEFSQALEKRNMTLCALNCSGNPLDPGELGKSHRDITDKTMELAGLLGVKKVIMMSGLPAGGPDDKVPNWITYTVSWPPVLKDILNYQWEDVAIPYWKKLVKKAEACGVGKIALENFSSQLVYNPETLFRLRNAVGPMVGLNLDPSHLLWMGADPIIAARELGSAIHHVHGKDVRIERYLSAVNGLLETKEVTDPANRAWNYVAVGCGQDLQWWKEFFSVVKMMGYEGEVSLEMEDLTMSPEAGIRTSVEALKQTISQ”, the “soluble on expression in E. coli” value is reported as “not soluble”. With “MGHHHHHHSHMANSAGSMANSAGSMKEGKHFVLVHGACHGGWSWYKLKPLLEAAGHKVTALDLAASGTDLRKIEELRTLYDYTLPLMELMESLSADEKVILVGHSLGGMNLGLAMEKYPQKIYAAVFLAAFMPDSVHNSSFVLEQYNERTPAENWLDTQFLPYGSPEEPLTSMFFGPKFLAHKLYQLCSPEDLALASSLVRPSSLFMEDLSKAKYFTDERFGSVKRVYIVCTEDKGIPEEFQRWQIDNIGVTEAIEIKGADHMAMLCEPQKLCASLLEIAHKYN” the “soluble on expression in E. coli” value was “soluble”. In the case of “MGSDKIHHHHHHMSISEQCVIEIDKYIDYFKKNTSQPNILAKLFKTDSSYYVYDTGTNKVLTCGEYEYSILGKIIDNKFDEISRINDDADKSGFYEALENVRQAIEKEDILRGGKEWKFVSKGHFEELDKKLNYELDQITLELTEKCNLRCRYCIYNESYEHKRNFGNKDMPIEIAEKAIDYANLHSGKEKGVGVTFYGGEPLVNFKLLKHSIEYSRKVIKDKKLTFSLTSNLTLMTPEIATYLASIENLTILCSIDGPEEIHDSYRKDINGNGTFKRAIRGLKYLIEAFGDKANKAVMMNMVFTPPYSIEKVNKIETFINSLDWLPKGLRISMTYPSTGSVDDTPPKGCEKNYGMELIQWSESKYKSELKSDGKIDMFNEEFVVHPILRIHGRRISAKSESGYPVNGCCIPGSRKLYVTVDGNFQICERINGSPIIGNVFNGIDENKIKNEVIDEFINKSIKDCSRCWAARLCNVCYSHCYTDGKLDMKEKKRYCIRSRERALRSLVFYHKCAEINPEKLKYLNKIEVS”, the “soluble on expression in E. coli” value is reported as “not soluble”. For “MGSDKIHHHHHHMKRMSCLLLGGLLLSGCGKEEAPPEPIRPVVFVEAQPESMQDFGRFAGNIQARYQSVLGFRVAGRIARRNVDVGSEVKKGDLLATLDPTDQQNNVRGRQGDLANVQAQWINAQANARRQQELFDRGVGAQAQLDVALTDLKTASSSLEQAKAAEQQARDQLSYSELHSDHDAVVTEWKVEAGQVVTAGQEVVTLARPDIKEAVIDLPDALADQLPRDVVFTVASQLNPDINTTATIREIEPQADRTTRTRRTRLSLAETPVAFRLGTAISVTLSSTITARMRLPINALQEVDGKRQIWIVDPQSQTVNPRAVNITSRDNDSFVLADGVKAGEKVVSAGVNSLKPGQKVKVDEESPR”, the “soluble on expression in E. coli” value was “not soluble”. In the case of “NTIEKEERIKIAVLTEQNQKNRIADYQDREEIYERQRRKMHDYKNQLSTIQTLIKNGHTDEALSFTQKLTESIAVEMSAINTNHPVVNAILNQKYRSMQEKHIAVILKVGDLQEICLEEEEIVILLSNLLDNAIRESEKVLKNTGKAVIHLKLECEDHKLIFAVRNPVTEKVEIENDTIKSKRGDHHGIGLLNVKAVVDKYGGDMVLSCDENEFKAVVIL”, the “soluble on expression in E. coli” value is reported as “not soluble”. For “MNKKDFLDFLNQNILILDGATGTELQKRGMPGGVCPEMWVIENPDVIMDIQKDYINAGSNAVYTCTFGGNRIKLSEFGLGDKVVEINKKLAQLSRKAAGEKGLVAGDLAPTGRFVRPFGDMPFEEAVDVYKEQVKGLLEGGVDFFVIETMMDIQEARAALLAVKESCDLPVCVSMTFDESGRTLTGTDSVSALIILQSLGADVVGCNCSTGPQDMIKIIREMKPYAKVPLLAKPNAGLPKLIDGKTRFDMEPEEFGSYIKEFVEAGVNLLGGCCGTSPVYIEQIRKNIEGLKPIPPQPKEICAVASARKTVFVDANEPVVVVGERINPTGKKKLQEELRQGMTSLVRQFAVEQVEKGADILDVNVGMPGIDEKETMVKVVELLSSITDAPLCLDSSSPEVLEAALRIYPGRALINSISAEKVKIEKLLPIAAKYGAAFILLPLGDAGVPKSAGERCKIVEEVFNEASKWGYTKKDVIVDGLVMTVSADQEAAVETLKVIEWCTQSFGCGTIVGLSNVSFGMPERAWINSAFLAMAIGYGLTMAILNPSSDTLMSIKMASDVLKVKDRNSKKYIEHFAALKSDKPQVVEKKDTASPVEKVYDAVVKGDRENIRKYIDDALKDGTEPSIIVDKYLIPAITHVGDLYDRKEYFLPQLIQSAETMKEAFGILEPLLKKEPVDEKGNKVKVILATVKGDIHDIGKNIVGLMLRNYGFEVYDLGKDVSAEEIVKKAKETNAPIIGLSALMTTTMLEMREVVSLVRQEGLNAKIMIGGAVVNADYAKEIGADGYSEDAYGAVKLASKLAGI”, the “soluble on expression in E. coli” value was “soluble”. In the case of “MDLYAVWGNPIAQSKSPLIQNKLAAQTHQTMEYIAKLGDLDAFEQQLLAFFEEGAKGCNITSPFKERAYQLADEYSQRAKLAEACNTLKKLDDGKLYADNTDGIGLVTDLQRLNWLRPNQHVLILGAGGATKGVLLPLLQAQQNIVLANRTFSKTKELAERFQPYGNIQAVSMDSIPLQTYDLVINATSAGLSGGTASVDAEILKLGSAFYDMQYAKGTDTPFIALCKSLGLTNVSDGFGMLVAQAAHSFHLWRGVMPDFVSVYEQLKKAMLLEHHHHHH”, the “soluble on expression in E. coli” value is reported as “soluble”. In the case of “MDKNETRATIIRIGTDLISRQGFNATGIDAVLKEAGVPKGSFYYYFRSKEEFGLAVIDHFAERYDQRLDTFLNDEEVTPLNRIRNYLESALARLEQNQCSKGCLIGNLGQELADQHERFRGRLDEIFRSWKDRFAACLREAQRGGELAPELDAGVAAGFILSGLEGAILRTKVMKSPQPLRDFIEILFASVLRRQA”, the “soluble on expression in E. coli” value is reported as “not soluble”. With “MRRLLTLWVLGLGALAQVPVGQVATRDVHALLWLPDGRLLFGHHDGLQVSEDEGRTWRDLVRKTGFDAMEHSFWRGDRLLAAEHWVLSESRDGGKTWRSFRPRGLPALDLHGYAASGGLHFALEATHGYFVSEDGGKTFKSTAPKGLPKAGMAAMVFQGKTLYVAPMGQGLYQSSDGGRTFTQVPTPEREIYALATGAGTLYLGGKTGLWQRTPAGWKRLWQGAVLALAAHPQEAGRLVFIDGQERVWKLP” the “soluble on expression in E. coli” value was “soluble”. With “MSLLFLAMAPKPKPWVQTEGPEKKKGRQAGREEDPFRSTAEALKAIPAEKRIIRVDPTCPLSSNPGTQVYEDYNCTLNQTNIENNNNKFYIIQLLQDSNRFFTCWNRWGRVGEVGQSKINHFTRLEDAKKDFEKKFREKTKNNWAERDHFVSHPGKYTLIEVQAEDEAQEAVVKVDRGPVRTVTKRVQPCSLDPATQKLITNIFSKEMFKNTMALMDLDVKKMPLGKLSKQQIARGFEALEALEEALKGPTDGGQSLEELSSHFYTVIPHNFGHSQPPPINSPELLQAKKDMLLVLADIELAQALQAVSEQEKTVEEVPHPLDRDYQLLKCQLQLLDSGAPEYKVIQTYLEQTGSNHRCPTLQHIWKVNQEGEEDRFQAHSKLGNRKLLWHGTNMAVVAAILTSGLRIMPHSGGRVGKGIYFASENSKSAGYVIGMKCGAHHVGYMFLGEVALGREHHINTDNPSLKSPPPGFDSVIARGHTEPDPTQDTELELDGQQVVVPQGQPVPCPEFSSSTFSQSEYLIYQESQCRLRYLLEVHL” the “soluble on expression in E. coli” value was “soluble”.
